System: poly dT-15-mer initiator oligonucleotide
Assay: Initial activity screen of polymerase μ R387K with divalent cations (rate of ssDNA generation)
Assay type: biochemical
Conditions: 200 μM dNTP, 37° C.
Description: FIGS. 3A to 3C. […] Denaturing gel electrophoresis analysis of dATP incorporation (FIG. 3B) and rATP incorporation (FIG. 3C) at nucleotide concentrations of 200-50 μM and 5.0-0.62 mM for dATP and rATP, respectively. These reactions were supplemented with 0.25 mM Mn^2+ and Mg^2+. The control reaction consisted of all reaction components except nucleotide. For all reactions, the initiator oligonucleotide was a HPLC-purified poly dT-15-mer.
Human polymerase μ R387K was expressed and purified as described in the materials and methods. Because it was unknown under which reaction conditions polymerase μ R387K functioned optimally, several reaction parameters were initially evaluated. […] Thus, polymerase p R387K, a confirmed DNA/RNA-directed polymerase, is useful for controlled enzymatic RNA synthesis.
Expressed proteins with terminal transferase activity were screened by determining the rate of RNA generation in terms of total RNA concentration and the length/distribution of RNA produced by the protein after incubation with natural rNTPs. […] The length of the RNA produced in these reactions was determined by comparing products to a 100-nt ssDNA ladder (Simplex Biosciences) using a 15% TBE-Urea denaturing gel (Thermo EC6885) following the manufacturer's protocol. […]

B1: polymerase μ R387K: Human polymerase μ with point mutation R387K, expressed and purified; SEQ ID NO: 1 (protein, listed as Homo sapiens)
chain: MLPKRRRARVGSPSGDAASSTPPSTRFPGVAIYLVEPRMGRSRRAFLTGLARSKGFRVLDACSSEATHVVMEETSAEEAVSWQERRMAAAPPGCTPPALLDISWLTESLGAGQPVPVECRHRLEVAGPRKGPLSPAWMPAYACQRPTPLTHHNTGLSEALEILAEAAGFEGSEGRLLTFCRAASVLKALPSPVTTLSQLQGLPHFGEHSSRVVQELLEHGVCEEVERVRRSERYQTMKLFTQIFGVGVKTADRWYREGLRTLDDLREQPQKLTQQQKAGLQHHQDLSTPVLRSDVDALQQVVEEAVGQALPGATVTLTGGFRRGKLQGHDVDFLITHPKEGQEAGLLPRVMCRLQDQGLILYHQHQHSCCESPTRLAQQSHMDAFEKSFCIFRLPQPPGAAVGGSTRPCPSWKAVRVDLVVAPVSQFPFALLGWTGSKLFQRELRRFSRKEKGLWLNSHGLFDPEQKTFFQAASEEDIFRHLGLEYLPPEQRNA
Question: Which “rate of ssDNA generation” value (0.25 mM Co^2+, worst rate) does the source give for B1 here?
Answer: ~100 RFU/minute

Question: And the “rate of ssDNA generation” value (combination of Mn^2+ and Mg^2+ at 0.25 mM, highest rate)?
Answer: ~650 RFU/minute
